In paper PMC9484798:

Molecular target: U6, a member of the malonate semialdehyde decarboxylase (MSAD)-like subgroup of the tautomerase superfamily
Assay: native MS

- stoichiometry N: 3
Substance: U6, a member of the malonate semialdehyde decarboxylase (MSAD)-like subgroup of the tautomerase superfamily (enzyme)
